This note sets out measurements from US6867012B2, “Determination method of biological component and reagent kit used therefor” (Toyo Boseki Kabushiki Kaisha, priority 2000, dated 2005).

A short description of this data set: Activity measurement of betaine-homocysteine methyltransferase (methionine produced, absorbance at 520 nm). To be noted: 37° C., 1 h, pH 7.5; 1 U = 1 μmole of methionine per 1 h. It counts as biochemical. The method, then:
• reagent A 50 mM potassium phosphate buffer (pH 7.5) • reagent B 100 mM DL-homocysteine solution (dissolved in reagent A) • reagent C 100 mM betaine (dissolved in reagent A) • reagent D 0.2% aqueous pentacyanoanmineiron(III) sodium solution • reagent E acetic acid • reagent F 10% aqueous sodium nitrite solution <Measurement Conditions>
After the completion of the reaction, reagent D (5 ml) is added and the mixture is stirred. After standing for 1 min, 1 ml each of reagent E and reagent F were added in this order and the mixture is stirred. After standing for 30 min at room temperature, absorbance at 520 nm is measured. Using L-methionine dissolved in reagent A instead of the enzyme solution, absorbance is measured in the same manner and a standard curve is drawn, from which the amount of methionine produced by the enzymatic reaction is measured.

B1: betaine-homocysteine methyltransferase: Human-derived enzyme (EC 2.1.1.5) expressed from human liver cDNA in E. coli BL21(DE3) and purified (protein, UniProt Q93088 1-406, looked up)
Betaine--homocysteine …: MPPVGGKKAKKGILERLNAGEIVIGDGGFVFALEKRGYVKAGPWTPEAAVEHPEAVRQLHREFLRAGSNVMQTFTFYASEDKLENRGNYVLEKISGQEVNEAACDIARQVADEGDALVAGGVSQTPSYLSCKSETEVKKVFLQQLEVFMKKNVDFLIAEYFEHVEEAVWAVETLIASGKPVAATMCIGPEGDLHGVPPGECAVRLVKAGASIIGVNCHFDPTISLKTVKLMKEGLEAARLKAHLMSQPLAYHTPDCNKQGFIDLPEFPFGLEPRVATRWDIQKYAREAYNLGVRYIGGCCGFEPYHIRAIAEELAPERGFLPPASEKHGSWGSGLDMHTKPWVRARARKEYWENLRIASGRPYNPSMSKPDGWGVTKGTAELMQQKEATTEQQLKELFEKQKFKSQ
With B1, the “specific activity of purified enzyme standard product” value was “about 2.1 U/mg protein”.
